Experiments:
HeLa Kyoto [1] = experiment: solubility in G1/S (NP-40 vs SDS abundance) (log2 ratio); higher = more soluble; details: cell cycle stage: G1/S
HeLa Kyoto [2] = experiment: melting temperature (median over replicates), in situ; higher = more thermally stable
HeLa Kyoto [3] = experiment: solubility change mitosis vs G1/S (difference of NP-40 vs SDS log2 ratios) (log2 ratio difference); higher = more soluble in mitosis
HeLa Kyoto [4] = experiment: thermal stability score vs G1/S (z-score of summed log2 fold changes over temperatures); higher = more thermally stable than in G1/S
[5] = cell cycle stage: early G1 (4.5 h after nocodazole release)
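For melting temperature (median over replicates), in situ in this document: HeLa Kyoto cells synchronized by double thymidine or nocodazole block, proteins quantified by TMT10plex mass spectrometry, three independent biological replicates.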
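For solubility change mitosis vs G1/S (difference of NP-40 vs SDS log2 ratios) in this document: synchronized HeLa Kyoto cells (double thymidine block for G1/S, nocodazole release for mitosis), protein amounts in NP-40 versus SDS lysates quantified by mass spectrometry, three biological replicates.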
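For solubility in G1/S (NP-40 vs SDS abundance) in this document: HeLa Kyoto cells arrested at G1/S by double thymidine block, proteins quantified by TMT10plex mass spectrometry in mild NP-40 versus SDS extracts, three biological replicates.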
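For thermal stability score vs G1/S (z-score of summed log2 fold changes over temperatures) in this document: synchronized HeLa Kyoto cells, proteins quantified by TMT10plex mass spectrometry, three biological replicates, mitosis taken 0.5 h after nocodazole release, G1/S directly after double thymidine block.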

Row | Sequence | solubility in G1/S (log2) (HeLa Kyoto [1]) | melting temperature (HeLa Kyoto [2]; cell cycle stage: G1/S) | melting temperature (HeLa Kyoto [2]; cell cycle stage: mitosis) | solubility change mitosis (log2) (HeLa Kyoto [3]) | thermal stability score (HeLa Kyoto [4]; [5]) | thermal stability score (HeLa Kyoto [4]; cell cycle stage: mitosis)
1 | MDSLEEPQKKVFKARKTMRVSDRQQLEAVYKVKEELLKTDVKLLNGNHENGDLDPTSPLENMDYIKDKEEVNGIEEICFDPEGSKAEWKETPCILSVNVKNKQDDDLNCEPLSPHNITPEPVSKLPAEPVSGDPAPGDLDAGDPASGVLASGDSTSGDPTSSEPSSSDAASGDATSGDAPSGDVSPGDATSGDATADDLSSGDPTSSDPIPGEPVPVEPISGDCAADDIASSEITSVDLASGAPASTDPASDDLASGDLSSSELASDDLATGELASDELTSESTFDRTFEPKSVPVCEPVPEIDNIEPSSNKDDDFLEKNGADEKLEQIQSKDSLDEKNKADNNIDANEETLETDDTTICSDRPPENEKKVEEDIITELALGEDAISSSMEIDQGEKNEDETSADLVETINENVIEDNKSENILENTDSMETDEIIPILEKLAPSEDELTCFSKTSLLPIDETNPDLEEKMESSFGSPSKQESSESLPKEAFLVLSDEEDISGEKDESEVISQNETCSPAEVESNEKDNKPEEEEQVIHEDDERPSEKNEFSRRKRSKSEDMDNVQSKRRRYMEEEYEAEFQVKITAKGDINQKLQKVIQWLLEEKLCALQCAVFDKTLAELKTRVEKIECNKRHKTVLTELQAKIARLTKRFEAAKEDLKKRHEHPPNPPVSPGKTVNDVNSNNNMSYRNAGTVRQMLESKRNVSESAPPSFQTPVNTVSSTNLVTPPAVVSSQPKLQTPVTSGSLTATSVLPAPNTATVVATTQVPSGNPQPTISLQPLPVILHVPVAVSSQPQLLQSHPGTLVTNQPSGNVEFISVQSPPTVSGLTKNPVSLPSLPNPTKPNNVPSVPSPSIQRNPTASAAPLGTTLAVQAVPTAHSIVQATRTSLPTVGPSGLYSPSTNRGPIQMKIPISAFSTSSAAEQNSNTTPRIENQTNKTIDASVSKKAADSTSQCGKATGSDSSGVIDLTMDDEESGASQDPKKLNHTPVSTMSSSQPVSRPLQPIQPAPPLQPSGVPTSGPSQTTIHLLPTAPTTVNVTHRPVTQVTTRLPVPRAPANHQVVYTTLPAPPAQAPLRGTVMQAPAVRQVNPQNSVTVRVPQTTTYVVNNGLTLGSTGPQLTVHHRPPQVHTEPPRPVHPAPLPEAPQPQRLPPEAASTSLPQKPHLKLARVQSQNGIVLSWSVLEVDRSCATVDSYHLYAYHEEPSATVPSQWKKIGEVKALPLPMACTLTQFVSGSKYYFAVRAKDIYGRFGPFCDPQSTDVISSTQSS [ATF7IP] | 0.0405 | 49 °C | 49.8 °C | -0.146 | 0.103 | 1.25
2 | MSLSSGASGGKGVDANPVETYDSGDEWDIGVGNLIIDLDADLEKDQQKLEMSGSKEVGIPAPNAVATLPDNIKFVTPVPGPQGKEGKSKSKRSKSGKDTSKPTPGTSLFTPSEGAASKKEVQGRSGDGANAGGLVAAIAPKGSEKAAKASRSVAGSKKEKENSSSKSKKERSEGVGTCSEKDPGVLQPVPLGGRGGQYDGSAGVDTGAVEPLGSIAIEPGAALNPLGTKPEPEEGENECRLLKKVKSEKMESPVSTPAVLPIHLLVPVVNNDISSPCEQIMVRTRSVGVNTCDVALATEPECLGPCEPGTSVNLEGIVWQETEDGMLVVNVTWRNKTYVGTLLDCTRHDWAPPRFCDSPTSDLEMRNGRGRGKRMRPNSNTPVNETATASDSKGTSNSSKTRAGANSKGRRGSQNSSEHRPPASSTSEDVKASPSSANKRKNKPLSDMELNSSSEDSKGSKRVRTNSMGSATGPLPGTKVEPTVLDRNCPSPVLIDCPHPNCNKKYKHINGLKYHQAHAHTDDDSKPEADGDSEYGEEPILHADLGSCNGASVSQKGSLSPARSATPKVRLVEPHSPSPSSKFSTKGLCKKKLSGEGDTDLGALSNDGSDDGPSVMDETSNDAFDSLERKCMEKEKCKKPSSLKPEKIPSKSLKSARPIAPAIPPQQIYTFQTATFTAASPGSSSGLTATVAQAMPNSPQLKPIQPKPTVMGEPFTVNPALTPAKDKKKKDKKKKESSKELESPLTPGKVCRAEEGKSPFRESSGDGMKMEGLLNGSSDPHQSRLASIKAEADKIYSFTDNAPSPSIGGSSRLENTTPTQPLTPLHVVTQNGAEASSVKTNSPAYSDISDAGEDGEGKVDSVKSKDAEQLVKEGAKKTLFPPQPQSKDSPYYQGFESYYSPSYAQSSPGALNPSSQAGVESQALKTKRDEEPESIEGKVKNDICEEKKPELSSSSQQPSVIQQRPNMYMQSLYYNQYAYVPPYGYSDQSYHTHLLSTNTAYRQQYEEQQKRQSLEQQQRGVDKKAEMGLKEREAALKEEWKQKPSIPPTLTKAPSLTDLVKSGPGKAKEPGADPAKSVIIPKLDDSSKLPGQAPEGLKVKLSDASHLSKEASEAKTGAECGRQAEMDPILWYRQEAEPRMWTYVYPAKYSDIKSEDERWKEERDRKLKEERSRSKDSVPKEDGKESTSSDCKLPTSEESRLGSKEPRPSVHVPVSSPLTQHQSYIPYMHGYSYSQSYDPNHPSYRSMPAVMMQNYPGSYLPSSYSFSPYGSKVSGGEDADKARASPSVTCKSSSESKALDILQQHASHYKSKSPTISDKTSQERDRGGCGVVGGGGSCSSVGGASGGERSVDRPRTSPSQRLMSTHHHHHHLGYSLLPAQYNLPYAAGLSSTAIVASQQGSTPSLYPPPRR [ZNF609] | 0.0412 | 49.9 °C | 52.1 °C | 0.204 | -1.11 | 2.18
3 | MRFRIYKRKVLILTLVVAACGFVLWSSNGRQRKNEALAPPLLDAEPARGAGGRGGDHPSVAVGIRRVSNVSAASLVPAVPQPEADNLTLRYRSLVYQLNFDQTLRNVDKAGTWAPRELVLVVQVHNRPEYLRLLLDSLRKAQGIDNVLVIFSHDFWSTEINQLIAGVNFCPVLQVFFPFSIQLYPNEFPGSDPRDCPRDLPKNAALKLGCINAEYPDSFGHYREAKFSQTKHHWWWKLHFVWERVKILRDYAGLILFLEEDHYLAPDFYHVFKKMWKLKQQECPECDVLSLGTYSASRSFYGMADKVDVKTWKSTEHNMGLALTRNAYQKLIECTDTFCTYDDYNWDWTLQYLTVSCLPKFWKVLVPQIPRIFHAGDCGMHHKKTCRPSTQSAQIESLLNNNKQYMFPETLTISEKFTVVAISPPRKNGGWGDIRDHELCKSYRRLQ [MGAT2] | -0.0662 | 53.8 °C | 53.2 °C | -0.141 | -0.501 | -0.689
4 | MANPKEKTAMCLVNELARFNRVQPQYKLLNERGPAHSKMFSVQLSLGEQTWESEGSSIKKAQQAVANKALTESTLPKPVQKPPKSNVNNNPGSITPTVELNGLAMKRGEPAIYRPLDPKPFPNYRANYNFRGMYNQRYHCPVPKIFYVQLTVGNNEFFGEGKTRQAARHNAAMKALQALQNEPIPERSPQNGESGKDVDDDKDANKSEISLVFEIALKRNMPVSFEVIKESGPPHMKSFVTRVSVGEFSAEGEGNSKKLSKKRAATTVLQELKKLPPLPVVEKPKLFFKKRPKTIVKAGPEYGQGMNPISRLAQIQQAKKEKEPDYVLLSERGMPRRREFVMQVKVGNEVATGTGPNKKIAKKNAAEAMLLQLGYKASTNLQDQLEKTGENKGWSGPKPGFPEPTNNTPKGILHLSPDVYQEMEASRHKVISGTTLGYLSPKDMNQPSSSFFSISPTSNSSATIARELLMNGTSSTAEAIGLKGSSPTPPCSPVQPSKQLEYLARIQGFQAALSALKQFSEQGLDPIDGAMNIEKGSLEKQAKHLREKADNNQAPPGSIAQDCKKSNSAV [STAU2] | -0.227 | 49.1 °C | 50.3 °C | 0.169 | 0.426 | 1.69
5 | MAAPPEPGEPEERKSLKLLGFLDVENTPCARHSILYGSLGSVVAGFGHFLFTSRIRRSCDVGVGGFILVTLGCWFHCRYNYAKQRIQERIAREEIKKKILYEGTHLDPERKHNGSSSN [COX20] | 0.0379 | 55.3 °C | 58 °C | -0.0179 | -0.338 | -1.53
6 | MIEMAAEKEPFLVPAPPPPLKDESGGGGGPTVPPHQEAASGELRGGTERGPGRCAPSAGSPAAAVGRESPGAAATSSSGPQAQQHRGGGPQAQSHGEARLSDPPGRAAPPDVGEERRGGGGTELGPPAPPRPRNGYQPHRPPGGGGGKRRNSCNVGGGGGGFKHPAFKRRRRVNSDCDSVLPSNFLLGGNIFDPLNLNSLLDEEVSRTLNAETPKSSPLPAKGRDPVEILIPKDITDPLSLNTCTDEGHVVLASPLKTGRKRHRHRGQHHQQQQAAGGSESHPVPPTAPLTPLLHGEGASQQPRHRGQNRDAPQPYELNTAINCRDEVVSPLPSALQGPSGSLSAPPAASVISAPPSSSSRHRKRRRTSSKSEAGARGGGQGSKEKGRGSWGGRHHHHHPLPAAGFKKQQRKFQYGNYCKYYGYRNPSCEDGRLRVLKPEWFRGRDVLDLGCNVGHLTLSIACKWGPSRMVGLDIDSRLIHSARQNIRHYLSEELRLPPQTLEGDPGAEGEEGTTTVRKRSCFPASLTASRGPIAAPQVPLDGADTSVFPNNVVFVTGNYVLDRDDLVEAQTPEYDVVLCLSLTKWVHLNWGDEGLKRMFRRIYRHLRPGGILVLEPQPWSSYGKRKTLTETIYKNYYRIQLKPEQFSSYLTSPDVGFSSYELVATPHNTSKGFQRPVYLFHKARSPSH [MEPCE] | -0.115 | 47.8 °C | 49.8 °C | 0.364 | 2.47 | 4.6
7 | MATSNLLKNKGSLQFEDKWDFMRPIVLKLLRQESVTKQQWFDLFSDVHAVCLWDDKGPAKIHQALKEDILEFIKQAQARVLSHQDDTALLKAYIVEWRKFFTQCDILPKPFCQLEITLMGKQGSNKKSNVEDSIVRKLMLDTWNESIFSNIKNRLQDSAMKLVHAERLGEAFDSQLVIGVRESYVNLCSNPEDKLQIYRDNFEKAYLDSTERFYRTQAPSYLQQNGVQNYMKYADAKLKEEEKRALRYLETRRECNSVEALMECCVNALVTSFKETILAECQGMIKRNETEKLHLMFSLMDKVPNGIEPMLKDLEEHIISAGLADMVAAAETITTDSEKYVEQLLTLFNRFSKLVKEAFQDDPRFLTARDKAYKAVVNDATIFKLELPLKQKGVGLKTQPESKCPELLANYCDMLLRKTPLSKKLTSEEIEAKLKEVLLVLKYVQNKDVFMRYHKAHLTRRLILDISADSEIEENMVEWLREVGMPADYVNKLARMFQDIKVSEDLNQAFKEMHKNNKLALPADSVNIKILNAGAWSRSSEKVFVSLPTELEDLIPEVEEFYKKNHSGRKLHWHHLMSNGIITFKNEVGQYDLEVTTFQLAVLFAWNQRPREKISFENLKLATELPDAELRRTLWSLVAFPKLKRQVLLYEPQVNSPKDFTEGTLFSVNQEFSLIKNAKVQKRGKINLIGRLQLTTERMREEENEGIVQLRILRTQEAIIQIMKMRKKISNAQLQTELVEILKNMFLPQKKMIKEQIEWLIEHKYIRRDESDINTFIYMA [CUL5] | -0.152 | 55.6 °C | 54 °C | -0.233 | -0.282 | -0.5
8 | MSVTYDDSVGVEVSSDSFWEVGNYKRTVKRIDDGHRLCSDLMNCLHERARIEKAYAQQLTEWARRWRQLVEKGPQYGTVEKAWMAFMSEAERVSELHLEVKASLMNDDFEKIKNWQKEAFHKQMMGGFKETKEAEDGFRKAQKPWAKKLKEVEAAKKAHHAACKEEKLAISREANSKADPSLNPEQLKKLQDKIEKCKQDVLKTKEKYEKSLKELDQGTPQYMENMEQVFEQCQQFEEKRLRFFREVLLEVQKHLDLSNVAGYKAIYHDLEQSIRAADAVEDLRWFRANHGPGMAMNWPQFEEWSADLNRTLSRREKKKATDGVTLTGINQTGDQSLPSKPSSTLNVPSNPAQSAQSQSSYNPFEDEDDTGSTVSEKDDTKAKNVSSYEKTQSYPTDWSDDESNNPFSSTDANGDSNPFDDDATSGTEVRVRALYDYEGQEHDELSFKAGDELTKMEDEDEQGWCKGRLDNGQVGLYPANYVEAIQ [PACSIN2] | 0.218 | 49.6 °C | 49.7 °C | -0.0385 | 1.11 | 1.7

— the supplement of paper PMC5998384
